Earlier results as cited in article PMC12086256.

Biological target: VEGFR1 (Homo sapiens) (UniProt P17948)
Sequence of UniProt P17948 (P17948 27-758): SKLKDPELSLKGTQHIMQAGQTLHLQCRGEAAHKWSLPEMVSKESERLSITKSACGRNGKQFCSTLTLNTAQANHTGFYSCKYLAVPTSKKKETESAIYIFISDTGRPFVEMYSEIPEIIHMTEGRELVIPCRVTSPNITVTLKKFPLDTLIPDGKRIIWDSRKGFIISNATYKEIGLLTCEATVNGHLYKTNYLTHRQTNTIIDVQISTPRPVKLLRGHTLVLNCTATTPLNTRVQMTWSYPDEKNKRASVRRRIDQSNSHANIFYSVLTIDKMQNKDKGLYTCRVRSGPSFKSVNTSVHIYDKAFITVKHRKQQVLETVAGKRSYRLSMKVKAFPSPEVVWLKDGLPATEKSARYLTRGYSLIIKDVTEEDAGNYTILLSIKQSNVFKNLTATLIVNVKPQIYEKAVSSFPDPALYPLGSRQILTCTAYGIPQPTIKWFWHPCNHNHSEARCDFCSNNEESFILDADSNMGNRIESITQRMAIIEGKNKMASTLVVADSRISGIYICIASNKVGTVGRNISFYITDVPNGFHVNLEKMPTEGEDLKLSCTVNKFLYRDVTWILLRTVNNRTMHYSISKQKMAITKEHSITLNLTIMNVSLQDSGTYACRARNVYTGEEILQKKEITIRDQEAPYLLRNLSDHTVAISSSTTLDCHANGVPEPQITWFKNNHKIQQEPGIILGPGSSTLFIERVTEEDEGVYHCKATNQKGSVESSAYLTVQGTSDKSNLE

Kd: 2 nM
Substance: VEGF-B167 (from UniProt P49765)
